From the supplement of paper PMC10567573 come the findings set out here.

The labels stand for the following.
B1: PPEF2 (parent)
chain: AFKAAALIQRWYRRYVARLEMRRR
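Further: lentivirally expressed fusions sorted by FACS into six bins by GFP to DsRed ratio, PSI derived from sequencing read proportions per bin multiplied by bin number.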

In this series the parent is B1. Briefly: protein stability index of a GFP-peptide fusion (GPS, HEK-293T) (PSI 1-6); higher = more stable. The conditions noted are these: c terminus: a fixed tail appended.
For AFKAAALIQRWYRRYVARSEMRRR, the protein stability index was found to be 4.1.

Consider AFKAAALIQRWYRRYVARFEMRRR, for which the protein stability index was determined as 2.45.

As for AFKAAALIQRWYRRYVARTEMRRR, the protein stability index stood at 4.63.

Turning to AFKAAALIQRWYRRYVARKEMRRR, the protein stability index was determined as 4.7. For the variant AFKAAALIQRWYRRYVARHEMRRR, the protein stability index turned out to be 3.33. For AFKAAALIQRWYRRYVARQEMRRR the value was 3.87; for AFKAAALIQRWYRRYVARYEMRRR, 2.03; for AFKAAALIQRWYRRYVARPEMRRR, 3.63. On to AFKAAALIQRWYRRYVARWEMRRR, for which the protein stability index is 2.13.

With AFKAAALIQRWYRRYVARVEMRRR, the protein stability index was found to be 3.42. Then AFKAAALIQRWYRRYVARNEMRRR, with 3.12; and AFKAAALIQRWYRRYVARCEMRRR, with 2.48. As to AFKAAALIQRWYRRYVARIEMRRR, the protein stability index came out at 3.64. For the variant AFKAAALIQRWYRRYTARLEMRRR, the protein stability index amounted to 3.53.

Regarding AFKAAALIQRWYRRYRARLEMRRR, the protein stability index was 5.4.

Regarding AFKAAALIQRWYRRYYARLEMRRR, the protein stability index turned out to be 2.96. Then AFKAAALIQRWYRRYCARLEMRRR, with 3.05. As to AFKAAALIQRWYRRYHARLEMRRR, the protein stability index came to 3.66. For the variant AFKAAALIQRWYRRYPARLEMRRR, the protein stability index is 1.92. As for AFKAAALIQRWYRRYSARLEMRRR, the protein stability index is 4.23. With AFKAAALIQRWYRRYEARLEMRRR, the protein stability index came to 2.13. On to AFKAAALIQRWYRRYNARLEMRRR, for which the protein stability index came out at 3.02. Then AFKAAALIQRWYRRYKARLEMRRR, with 4.73. Turning to AFKAAALIQRWYRRYFARLEMRRR, the protein stability index came out at 3.25. In the case of AFKAAALIQRWYRRYAARLEMRRR, the protein stability index is 3.94.

With AFKAAALIQRWYRRYMARLEMRRR, the protein stability index was found to be 4.45. Then AFKAAALIQRWYRRYLARLEMRRR, with 4. As to AFKAAALIQRWYRRYIARLEMRRR, the protein stability index amounted to 3.94. Then AFKAAALIQRWYRRYWARLEMRRR, with 2.32. For the variant AFKAAALIQRWYRRYVARLEMRRF, the protein stability index came out at 1.81. On to AFKAAALIQRWYRRYVARLEMRRS, for which the protein stability index was determined as 2.63.

As for AFKAAALIQRWYRRYVARLEMRRG, the protein stability index was 3.09. For AFKAAALIQRWYRRYVARLEMRRM the value was 2.45; for AFKAAALIQRWYRRYVARLEMRRE, 3.

Regarding AFKAAALIQRWYRRYVARLEMRRP, the protein stability index was found to be 2.39. Regarding AFKAAALIQRWYRRYVARLEMRRK, the protein stability index is 2.75.

Turning to AFKAAALIQRWYRRYVARLEMRRQ, the protein stability index is 3.32. Then AFKAAALIQRWYRRYVARLEMRRN, with 3.62; and AFKAAALIQRWYRRYVARLEMRRL, with 2.9. Then AFKAAALIQRWYRRYVARLEMRRC, with 1.97.

For AFKAAALIQRWYRRYVARLEMRRH, the protein stability index was 3.78. Then AFKAAALIQRWYRRYVARLEMRRA, with 3.72. For AFKAAALIQRWYRRYVARLEMIRR the value was 1.89; for AFKAAALIQRWYRRYVARLEMFRR, 2.32. Consider AFKAAALIQRWYRRYVARLEMCRR, for which the protein stability index came out at 2.01.

As for AFKAAALIQRWYRRYVARLEMLRR, the protein stability index worked out at 3.12.

Regarding AFKAAALIQRWYRRYVARLEMWRR, the protein stability index came to 2.52.

For the variant AFKAAALIQRWYRRYVARLEMYRR, the protein stability index was found to be 2.42.

Turning to AFKAAALIQRWYRRYVARLEMSRR, the protein stability index was 2.68. Take AFKAAALIQRWYRRYVARLEMDRR: the protein stability index is 2.24.

Regarding AFKAAALIQRWYRRYVARLEMVRR, the protein stability index stood at 1.66.

With AFKAAALIQRWYRRYVARLEMQRR, the protein stability index was 2.74. For AFKAAALIQRWYRRYVARLEMNRR the value was 3.83; for AFKAAALIQRWYRRYVARLEMMRR, 1.75. Then AFKAAALIQRWYRRYVARLEMPRR, with 1.52; and AFKAAALIQRWYRRYVARLEMTRR, with 3.82; and AFKAAALIQRWYRRLVARLEMRRR, with 3.82. For AFKAAALIQRWYRRRVARLEMRRR the value was 4.11; for AFKAAALIQRWYRRMVARLEMRRR, 5.14.

Take AFKAAALIQRWYRRPVARLEMRRR: the protein stability index worked out at 1.89. For AFKAAALIQRWYRRGVARLEMRRR the value was 1.93; for AFKAAALIQRWYRRAVARLEMRRR, 4.61; for AFKAAALIQRWYRRWVARLEMRRR, 3.61. For AFKAAALIQRWYRRVVARLEMRRR, the protein stability index turned out to be 4.4. For AFKAAALIQRWYRRQVARLEMRRR the value was 4.44. For AFKAAALIQRWYRRDVARLEMRRR the value was 1.87; for AFKAAALIQRWYRRFVARLEMRRR, 3.39.

Turning to AFKAAALIQRWYRRHVARLEMRRR, the protein stability index was determined as 4.56. For AFKAAALIQRWYRREVARLEMRRR the value was 3.89; for AFKAAALIQRWYRRCVARLEMRRR, 4.6; for AFKAAALIQRWYRRNVARLEMRRR, 5.1.

As for AFKAAALIQRWYRRTVARLEMRRR, the protein stability index was found to be 4.46. Regarding AFKAAALIQRWYARYVARLEMRRR, the protein stability index came out at 1.62. Then AFKAAALIQRWYKRYVARLEMRRR, with 2.22. Then AFKAAALIQRWYPRYVARLEMRRR, with 1.23; and AFKAAALIQRWYIRYVARLEMRRR, with 2.53; and AFKAAALIQRWYNRYVARLEMRRR, with 1.15. Then AFKAAALIQRWYFRYVARLEMRRR, with 2.06.

As to AFKAAALIQRWYMRYVARLEMRRR, the protein stability index is 1.93. For AFKAAALIQRWYHRYVARLEMRRR, the protein stability index was 2.16. Take AFKAAALIQRWYLRYVARLEMRRR: the protein stability index was 2.05. Then AFKAAALIQRWYQRYVARLEMRRR, with 2.26; and AFKAAALIQRWYERYVARLEMRRR, with 1.95; and AFKAAALIQRWYTRYVARLEMRRR, with 1.8. Then AFKAAALIQRWYRRYVARLEMRWR, with 1.98. In the case of AFKAAALIQRWYRRYVARLEMRSR, the protein stability index came to 1.65. For AFKAAALIQRWYRRYVARLEMRPR the value was 2.36. For AFKAAALIQRWYRRYVARLEMRIR the value was 2.13; for AFKAAALIQRWYRRYVARLEMRHR, 2.26. For AFKAAALIQRWYRRYVARLEMRCR the value was 3.14; for AFKAAALIQRWYRRYVARLEMRKR, 3.58.

As to AFKAAALIQRWYRRYVARLEMRAR, the protein stability index is 2.81.

On to AFKAAALIQRWYRRYVARLEMRYR, for which the protein stability index is 1.58.

As for AFKAAALIQRWYRRYVARLEMRTR, the protein stability index was 2.25.
